Data as given in the supplement of paper PMC11246515.
± gives the standard deviation of the averaged measurements.

Assay: total protein half-life in vivo (active degradation + dilution); higher = more stable protein
[1] = wild type E. coli NCM3722, growth: P-lim chemostat, doubling time 6 h
[2] = E. coli NCM3722 delta-clpP delta-lon delta-hslV, growth: N-lim chemostat, doubling time 6 h
[3] = E. coli NCM3722 delta-clpP, growth: N-lim chemostat, doubling time 6 h
[4] = E. coli NCM3722 delta-hslV, growth: N-lim chemostat, doubling time 6 h
[5] = E. coli NCM3722 delta-lon, growth: N-lim chemostat, doubling time 6 h
[6] = E. coli NCM3722 delta-smpB, growth: N-lim chemostat, doubling time 6 h
[7] = wild type E. coli NCM3722, growth: C-lim chemostat, doubling time 3 h
[8] = wild type E. coli NCM3722, growth: C-lim chemostat, doubling time 6 h
[9] = wild type E. coli NCM3722, growth: C-lim chemostat, doubling time 12 h
[10] = wild type E. coli NCM3722, growth: N-lim chemostat, doubling time 6 h
[11] = wild type E. coli NCM3722, growth: N-lim chemostat, doubling time 12 h
[12] = wild type E. coli NCM3722, growth: P-lim chemostat, doubling time 12 h

Row | Sequence | total protein half-life in vivo [1] [h] | total protein half-life in vivo [2] [h] | total protein half-life in vivo [3] [h] | total protein half-life in vivo [4] [h] | total protein half-life in vivo [5] [h] | total protein half-life in vivo [6] [h] | total protein half-life in vivo [7] [h] | total protein half-life in vivo [8] [h] | total protein half-life in vivo [9] [h] | total protein half-life in vivo [10] [h] | total protein half-life in vivo [11] [h] | total protein half-life in vivo [12] [h]
1 | MKRLIMATMVTAILASSTVWAADNAPVAAQQQTQQVQQTQKTAAAAERISEQGLYAMRDVQVARLALFHGDPEKAKELTNEASALLSDDSTEWAKFAKPGKKTNLNDDQYIVINASVGISESYVATPEKEAAIKIANEKMAKGDKKGAMEELRLAGVGVMENQYLMPLKQTRNALADAQKLLDKKQYYEANLALKGAEDGIIVDSEALFVN | 4.05 | – | – | – | – | – | – | – | – | – | – | –
2 | MKRLKNELNALVNRGVDRHLRLAVTGLSRSGKTAFITAMVNQLLNIHAGARLPLLSAVREERLLGVKRIPQRDFGIPRFTYDEGLAQLYGDPPAWPTPTRGVSEIRLALRFKSNDSLLRHFKDTSTLYLEIVDYPGEWLLDLPMLAQDYLSWSRQMTGLLNGQRGEWSAKWRMMSEGLDPLAPADENRLADIAAAWTDYLHHCKEQGLHFIQPGRFVLPGDMAGAPALQFFPWPDVDTWGESKLAQADKHTNAGMLRERFNYYCEKVVKGFYKNHFLRFDRQIVLVDCLQPLNSGPQAFNDMRLALTQLMQSFHYGQRTLFRRLFSPVIDKLLFAATKADHVTIDQHANMVSLLQQLIQDAWQNAAFEGISMDCLGLASVQATTSGIIDVNGEKIPALRGNRLSDGAPLTVYPGEVPARLPGQAFWDKQGFQFEAFRPQVMDVDKPLPHIRLDAALEFLIGDKLR | 6.1 ± 0.29 | 6.51 ± 0.91 | 6.53 ± 0.49 | 6.01 ± 0.15 | 5.93 ± 0.19 | 5.925 ± 0.037 | 2.94 ± 0.0058 | 6.04 ± 0.74 | 10.8 ± 3.9 | 5.52 ± 0.18 | 12.23 ± 0.11 | 12.2 ± 0.47
3 | MKRLLILTALLPFVGFAQPINTLNNPNQPGYQIPSQQRMQTQMQTQQIQQKGMLNQQLKTQTQLQQQHLENQINNNSQRVLQSQPGERNPARQQMLPNTNGGMLNSNRNPDSSLNQQHMLPERRNGDMLNQPSTPQPDIPLKTIGP [P0ADX7] | – | 5.56 | – | – | 4.65 | 3.81 | – | – | – | – | 7.44 | –
4 | MKRLSITVRLTLLFILLLSVAGAGIVWTLYNGLASELKWRDDTTLINRTAQIKQLLIDGVNPDTLPVYFNRMMDVSQDILIIHGDSINKIVNRTNVSDGMLNNIPASETISAAGIYRSIINDTEIDALRINIDEVSPSLTVTVAKLASARHNMLEQYKINSIIICIVAIVLCSVLSPLLIRTGLREIKKLSGVTEALNYNDSREPVEVSALPRELKPLGQALNKMHHALVKDFERLSQFADDLAHELRTPINALLGQNQVTLSQTRSIAEYQKTIAGNIEELENISRLTENILFLARADKNNVLVKLDSLSLNKEVENLLDYLEYLSDEKEICFKVECNQQIFADKILLQRMLSNLIVNAIRYSPEKSRIHITSFLDTNSYLNIDIASPGTKINEPEKLFRRFWRGDNSRHSVGQGLGLSLVKAIAELHGGSATYHYLNKHNVFRITLPQRN | 5.63 ± 0.89 | 5.59 ± 0.15 | 6.99 ± 0.076 | 6.03 ± 0.26 | – | 5.75 ± 0.48 | 3.13 ± 0.66 | 7.13 ± 0.64 | 10.1 | 6.174 ± 0.057 | 12.98 ± 0.022 | 13.4 ± 0.56
5 | MKRPALILICLLLQACSATTKELGNSLWDSLFGTPGVQLTDDDIQNMPYASQYMQLNGGPQLFVVLAFAEDGQQKWVTQDQATLVTQHGRLVKTLLGGDNLIEVNNLAADPLIKPAQIVDGASWTRTMGWTEYQQVRYATARSVFKWDGTDTVKVGSDETPVRVLDEEVSTDQARWHNRYWIDSEGQIRQSEQYLGADYFPVKTTLIKAAKQ | – | 6.57 ± 0.37 | 6.43 | – | 6.59 ± 0.19 | 5.12 ± 0.2 | – | – | – | – | – | –
6 | MKRPDYRTLQALDAVIRERGFERAAQKLCITQSAVSQRIKQLENMFGQPLLVRTVPPRPTEQGQKLLALLRQVELLEEEWLGDEQTGSTPLLLSLAVNADSLATWLLPALAPVLADSPIRLNLQVEDETRTQERLRRGEVVGAVSIQHQALPSCLVDKLGALDYLFVSSKPFAEKYFPNGVTRSALLKAPVVAFDHLDDMHQAFLQQNFDLPPGSVPCHIVNSSEAFVQLARQGTTCCMIPHLQIEKELASGELIDLTPGLFQRRMLYWHRFAPESRMMRKVTDALLDYGHKVLRQD [P0A8S1] | 6.03 ± 0.091 | 5.48 ± 0.31 | 5.93 ± 1.3 | 5.46 ± 0.27 | 5.78 ± 0.57 | 4.96 ± 0.39 | 3.01 ± 0.31 | – | 11.6 ± 0.16 | 5.84 ± 0.67 | 9.72 ± 0.46 | 13.4 ± 0.89
7 | MKRPNFLFVMTDTQATNMVGCYSGKPLNTQNIDSLAAEGIRFNSAYTCSPVCTPARAGLFTGIYANQSGPWTNNVAPGKNISTMGRYFKDAGYHTCYIGKWHLDGHDYFGTGECPPEWDADYWFDGANYLSELTEKEISLWRNGLNSVEDLQANHIDETFTWAHRISNRAVDFLQQPARADEPFLMVVSYDEPHHPFTCPVEYLEKYADFYYELGEKAQDDLANKPEHHRLWAQAMPSPVGDDGLYHHPLYFACNDFVDDQIGRVINALTPEQRENTWVIYTSDHGEMMGAHKLISKGAAMYDDITRIPLIIRSPQGERRQVDTPVSHIDLLPTMMALADIEKPEILPGENILAVKEPRGVMVEFNRYEIEHDSFGGFIPVRCWVTDDFKLVLNLFTSDELYDRRNDPNEMHNLIDDIRFADVRSKMHDALLDYMDKIRDPFRSYQWSLRPWRKDARPRWMGAFRPRPQDGYSPVVRDYDTGLPTQGVKVEEKKQKF | 4.04 | 5.62 | – | – | 3.1 | 2 | 2.28 | 4.35 ± 0.17 | 7.04 ± 0.66 | – | – | 8.72 ± 5.3
8 | MKRSLLFSAVLCAASLTSVHAAQPITEPEFASDIVDRYADHIFYGSGATGMALVVIDGNQRVFRSYGETRPGNNVRPQLDSVVRIASLTKLMTSEMLVKLLDQGTVKLNDPLSKYAPPGARVPTYNGTPITLVNLATHTSALPREQPGGAAHRPVFVWPTREQRWKYLSTAKLKAAPGSQAAYSNLAFDLLADALANASGKPYTQLFEEQITRPLGMKDTTYTPSPDQCRRLMVAERGASPCNNTLAAIGSGGVYSTPGDMMRWMQQYLSSDFYQRSNQADRMQTLIYQRAQFTKVIGMDVPGKADALGLGWVYMAPKEGRPGIIQKTGGGGGFITYMAMIPQKNIGAFVVVTRSPLTRFKNMSDGINDLVTELSGNKPLVIPAS [P0AD70] | 3.62 ± 0.42 | 3.75 ± 0.98 | 2.49 ± 0.33 | 3.37 ± 0.26 | 3.68 ± 0.084 | 3.17 ± 0.11 | 1.96 ± 0.34 | 3.73 ± 0.71 | 5.69 ± 1.3 | 3.96 ± 1 | 5.33 ± 0.35 | 6.14 ± 1.1
